Source: the supplement of paper PMC10567573

B1: ZBTB22 (parent)
chain: RPFDCPVCNKKFKMKHHLTEHMKT
B2: TOR1AIP2 (parent)
chain: HHVADAYTSSQKVSPIQIDGAGRT

Variants of: B1
Test: protein stability index of a GFP-peptide fusion (GPS, HEK-293T) (PSI 1-6); higher = more stable
Settings: c terminus: a fixed tail appended
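Also: lentivirally expressed fusions sorted by FACS into six bins by GFP to DsRed ratio, PSI derived from sequencing read proportions per bin multiplied by bin number.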

Protein stability index, by site and new letter:
T24: C 3.07 | W 2.22 | G 2.44 | V 2.34 | P 2.45 | F 2.46 | H 2.41 | Q 2.53 | D 3.55 | L 3.19 | R 2.84 | A 2.87 | K 2.43 | I 1.95 | S 2.53 | E 3.21 | N 2.54 | Y 2.01 | M 2.5
K10: W 1.7 | R 2.37 | V 2.11 | S 2.63 | F 2.34 | C 2.49 | H 2.47 | L 2.19 | Q 2.21 | Y 2.29 | T 2.96 | I 2.03 | G 2.25 | P 2.31 | A 2.52 | D 2.43 | M 2.46 | E 3.01 | N 2.45
E20: C 2.83 | H 2.44 | L 1.83 | M 2.62 | D 2.99 | I 2.21 | G 2.73 | Y 1.85 | K 3.1 | W 2.08 | A 2.78 | T 2.31 | R 3.45 | F 2.21 | Q 2.8 | P 2.11 | V 2.36 | N 3 | S 1.93
K23: F 1.95 | S 2.4 | M 2.11 | N 3.29 | A 2.3 | G 2.99 | L 2.38 | C 4.19 | H 3.06 | W 1.98 | P 2.48 | Y 2.17 | I 2.38 | T 2.38 | D 2.61 | E 2.39 | V 2.37 | Q 3.34 | R 2.26
L18: S 2.44 | I 2.1 | M 2.19 | Q 2.58 | C 4.01 | V 3.5 | E 2.78 | N 2.59 | Y 2.25 | F 2.7 | R 2.89 | T 2.67 | G 3.36 | D 2.39 | K 2.78 | H 3.08 | W 2.59 | A 2.93 | P 2.37
M14: R 3.14 | P 2.5 | S 3.96 | L 2.46 | V 2.58 | I 2.35 | K 2.93 | F 2.84 | N 3.89 | T 3.75 | C 3.9 | Q 3.17 | Y 3.1 | E 3.72 | G 2.69 | H 3.48 | D 3.75 | W 2.26 | A 3.09
H17: K 3.1 | W 2.08 | N 2.62 | Q 2.74 | E 3.42 | V 2.24 | L 1.94 | F 1.73 | M 2.42 | S 2.42 | R 2.18 | Y 1.95 | P 2.19 | A 2.17 | G 1.74 | D 3.07 | I 1.79 | C 2.25 | T 2.15
F12: K 2.1 | M 2.78 | I 2.49 | W 2.02 | G 2.65 | L 2.38 | P 2.5 | H 2.6 | D 2.22 | E 3.22 | Q 2.6 | C 4.09 | R 1.83 | T 2.64 | N 1.96 | Y 2.4 | V 2.04 | S 2.53 | A 2.44
H16: N 2.71 | Q 2.7 | E 3.27 | S 2.83 | F 1.9 | D 2.56 | G 2.11 | M 2.71 | A 2.59 | K 2.55 | T 2.39 | P 2.25 | V 2.08 | C 2.91 | W 2.27 | R 2.29 | L 2.56 | Y 2.28 | I 2.08
K15: C 4.13 | E 3.73 | Y 2.37 | V 2.62 | Q 2.26 | A 2.03 | W 2.47 | R 2.19 | G 2.78 | D 2.85 | N 2.12 | T 1.87 | P 2.67 | L 2.65 | M 2.24 | F 2.39 | S 2.22 | I 1.76 | H 2.24
K13: V 2.9 | L 2.89 | T 3.12 | G 2.6 | D 3.45 | R 2.33 | C 4.49 | F 2.33 | E 3.31 | Y 2.72 | W 2.58 | M 2.27 | H 2.65 | N 2.29 | A 2.85 | Q 3.12 | P 2.74 | S 2.91 | I 2.14
H21: W 2.13 | M 1.54 | L 1.45 | E 2.88 | V 2.44 | Q 2.34 | C 3.33 | G 2.38 | F 2.06 | T 2.24 | D 2.37 | S 2.52 | R 2.25 | N 2.38 | Y 2.2 | A 2.74 | P 2.37 | K 2.25 | I 1.84
N9: Y 2.07 | W 1.49 | V 2.06 | T 2.27
M22: V 1.89 | W 2.43 | H 2.75 | N 2.62 | F 2.3 | S 2.29 | Q 2.71 | P 2.48 | G 2.68 | E 3 | T 2.38 | D 3.1 | I 2.15 | R 2.48 | K 2.92 | A 2.48 | Y 2.72 | L 2.95 | C 2.93
T19: S 2.35 | N 2.88 | C 4.25 | I 3.07 | M 3.18 | R 3.34 | D 3.19 | K 2.48 | P 2.48 | Q 2.33 | Y 2.41 | E 3.39 | F 2.28 | L 2.8 | G 3.17 | V 3 | A 2.89 | H 2.8 | W 2.02
K11: G 2.43 | V 2.52 | E 2.89 | T 2.91 | N 2.79 | H 2.85 | I 2.36 | W 2.21 | L 2.25 | A 2.23 | F 1.8 | P 2.34 | Q 2.31 | C 2.44 | R 2.8 | S 3.12 | M 1.84 | D 2.55 | Y 2.17

Variants of: B2
Test: as above
Settings: c terminus: a fixed tail appended

Protein stability index of substitutions, site by site:
H2: P 3.87 | N 4.27 | Y 3.4 | Q 2.51 | S 4.08 | G 4.15 | C 3.5 | F 3.77 | L 1.86 | V 1.99 | A 4.01 | I 2.08 | T 3.81 | D 4.75 | K 4.32 | M 2.81 | W 2.96 | E 4.74 | R 3.67
V3: G 2.73 | E 3.12 | D 2.96 | C 1.75 | H 2.82 | A 1.62 | F 2.34
H1: S 4.3 | E 4.66 | K 3.94 | R 4.33 | Y 3.09 | Q 4.15 | I 3.14 | M 3.93 | W 3.68 | P 3.85 | N 4.53 | T 3.94 | G 4.43 | F 2.69 | L 3.81 | D 4.91 | C 3.67 | V 3.86 | A 4.54
